From patent US20250011379A1

Target: human C4b (human), P0C0L5
Test: cell-based or functional assay

Sequence of human C4b (human), P0C0L5 (P0C0L5 20-1744): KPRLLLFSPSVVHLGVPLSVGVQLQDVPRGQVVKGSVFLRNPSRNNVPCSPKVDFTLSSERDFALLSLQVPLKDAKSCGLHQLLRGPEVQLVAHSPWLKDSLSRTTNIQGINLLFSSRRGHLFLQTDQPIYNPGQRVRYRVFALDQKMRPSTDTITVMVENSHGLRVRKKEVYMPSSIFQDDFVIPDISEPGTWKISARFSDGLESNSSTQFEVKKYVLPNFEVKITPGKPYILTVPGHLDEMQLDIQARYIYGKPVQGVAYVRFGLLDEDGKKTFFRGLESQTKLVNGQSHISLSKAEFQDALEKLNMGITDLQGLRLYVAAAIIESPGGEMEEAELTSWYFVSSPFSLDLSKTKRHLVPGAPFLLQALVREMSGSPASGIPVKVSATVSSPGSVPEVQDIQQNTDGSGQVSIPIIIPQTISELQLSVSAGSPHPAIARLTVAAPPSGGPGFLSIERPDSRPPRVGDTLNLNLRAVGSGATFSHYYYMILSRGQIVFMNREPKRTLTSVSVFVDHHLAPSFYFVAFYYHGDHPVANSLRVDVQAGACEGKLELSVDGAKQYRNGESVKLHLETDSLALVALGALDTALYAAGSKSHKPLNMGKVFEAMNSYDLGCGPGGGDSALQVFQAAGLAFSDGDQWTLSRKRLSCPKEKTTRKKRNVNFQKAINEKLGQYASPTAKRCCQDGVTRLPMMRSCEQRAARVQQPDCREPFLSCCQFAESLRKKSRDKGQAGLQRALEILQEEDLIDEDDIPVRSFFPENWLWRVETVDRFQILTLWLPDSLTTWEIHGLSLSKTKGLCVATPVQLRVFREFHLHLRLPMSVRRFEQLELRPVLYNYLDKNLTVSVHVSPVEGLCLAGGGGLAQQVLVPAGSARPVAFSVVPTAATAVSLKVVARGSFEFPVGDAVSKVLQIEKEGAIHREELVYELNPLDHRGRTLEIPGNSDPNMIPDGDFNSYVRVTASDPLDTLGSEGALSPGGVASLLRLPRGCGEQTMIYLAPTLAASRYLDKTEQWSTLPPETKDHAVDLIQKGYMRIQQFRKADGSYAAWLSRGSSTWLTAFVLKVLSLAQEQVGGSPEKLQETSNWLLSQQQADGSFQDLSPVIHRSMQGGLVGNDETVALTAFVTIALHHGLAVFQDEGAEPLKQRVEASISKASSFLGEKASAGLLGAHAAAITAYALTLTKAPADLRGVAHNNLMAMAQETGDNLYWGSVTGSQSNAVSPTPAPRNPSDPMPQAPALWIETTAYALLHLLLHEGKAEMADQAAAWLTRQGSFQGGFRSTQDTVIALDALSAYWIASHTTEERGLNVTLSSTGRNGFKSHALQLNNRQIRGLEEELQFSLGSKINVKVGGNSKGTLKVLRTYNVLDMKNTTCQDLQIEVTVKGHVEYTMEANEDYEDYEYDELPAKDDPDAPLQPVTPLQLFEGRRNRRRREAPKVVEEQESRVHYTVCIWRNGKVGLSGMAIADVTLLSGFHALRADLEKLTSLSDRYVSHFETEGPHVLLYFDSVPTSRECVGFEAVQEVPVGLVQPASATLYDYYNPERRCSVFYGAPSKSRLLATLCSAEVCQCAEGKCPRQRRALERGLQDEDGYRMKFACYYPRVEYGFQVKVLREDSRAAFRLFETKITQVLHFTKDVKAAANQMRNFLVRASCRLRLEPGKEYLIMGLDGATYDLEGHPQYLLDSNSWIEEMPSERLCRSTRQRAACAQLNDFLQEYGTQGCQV

| Binder | C4c EC50 [nM] |
| --- | --- |
| Const. No. 94: hCFI-PD (wild type plasma-derived human CFI), P05156 19-583 (enzyme) KVTYTSQEDLVEKKCLAKKYTHLSCDKVFCQPWQRCIEGTCVCKLPYQCPKNGTAVCATNRRSFPTYCQQKSLECLHPGTKFLNNGTCTAEGKFSVSLKHGNTDSEGIVEVKLVDQDKTMFICKSSWSMREANVACLDLGFQQGADTQRRFKLSDLSINSTECLHVHCRGLETSLAECTFTKRRTMGYQDFADVVCYTQKADSPMDDFFQCVNGKYISQMKACDGINDCGDQSDELCCKACQGKGFHCKSGVCIPSQYQCNGEVDCITGEDEVGCAGFASVTQEETEILTADMDAERRRIKSLLPKLSCGVKNRMHIRRKRIVGGKRAQLGDLPWQVAIKDASGITCGGIYIGGCWILTAAHCLRASKTHRYQIWTTVVDWIHPDLKRIVIEYVDRIIFHENYNAGTYQNDIALIEMKKDGNKKDCELPRSIPACVPWSPYLFQPNDTCIVSGWGREKDNERVFSLQWGEVKLISNCSKFYGNRFYEKEMECAGTYDGSIDACKGDSGGPLVCMDANNVTYVWGVVSWGENCGKPEFPGVYTKVANYFDWISYHVGRPFISQYNV | 412 |
| Const. No. 96: hCFI (wt hCFI, no signal sequence, no HSA), P05156 19-583 (enzyme) KVTYTSQEDLVEKKCLAKKYTHLSCDKVFCQPWQRCIEGTCVCKLPYQCPKNGTAVCATNRRSFPTYCQQKSLECLHPGTKFLNNGTCTAEGKFSVSLKHGNTDSEGIVEVKLVDQDKTMFICKSSWSMREANVACLDLGFQQGADTQRRFKLSDLSINSTECLHVHCRGLETSLAECTFTKRRTMGYQDFADVVCYTQKADSPMDDFFQCVNGKYISQMKACDGINDCGDQSDELCCKACQGKGFHCKSGVCIPSQYQCNGEVDCITGEDEVGCAGFASVTQEETEILTADMDAERRRIKSLLPKLSCGVKNRMHIRRKRIVGGKRAQLGDLPWQVAIKDASGITCGGIYIGGCWILTAAHCLRASKTHRYQIWTTVVDWIHPDLKRIVIEYVDRIIFHENYNAGTYQNDIALIEMKKDGNKKDCELPRSIPACVPWSPYLFQPNDTCIVSGWGREKDNERVFSLQWGEVKLISNCSKFYGNRFYEKEMECAGTYDGSIDACKGDSGGPLVCMDANNVTYVWGVVSWGENCGKPEFPGVYTKVANYFDWISYHVGRPFISQYNV | 340 |
